Test results: publication PMC2132493

Target: mXRN1p (Mus musculus (mouse; testis BALB/c and …, UniProt P97789 1-1719)
Assay: EMSA

Sequence of mXRN1p (Mus musculus (P97789 whole entry): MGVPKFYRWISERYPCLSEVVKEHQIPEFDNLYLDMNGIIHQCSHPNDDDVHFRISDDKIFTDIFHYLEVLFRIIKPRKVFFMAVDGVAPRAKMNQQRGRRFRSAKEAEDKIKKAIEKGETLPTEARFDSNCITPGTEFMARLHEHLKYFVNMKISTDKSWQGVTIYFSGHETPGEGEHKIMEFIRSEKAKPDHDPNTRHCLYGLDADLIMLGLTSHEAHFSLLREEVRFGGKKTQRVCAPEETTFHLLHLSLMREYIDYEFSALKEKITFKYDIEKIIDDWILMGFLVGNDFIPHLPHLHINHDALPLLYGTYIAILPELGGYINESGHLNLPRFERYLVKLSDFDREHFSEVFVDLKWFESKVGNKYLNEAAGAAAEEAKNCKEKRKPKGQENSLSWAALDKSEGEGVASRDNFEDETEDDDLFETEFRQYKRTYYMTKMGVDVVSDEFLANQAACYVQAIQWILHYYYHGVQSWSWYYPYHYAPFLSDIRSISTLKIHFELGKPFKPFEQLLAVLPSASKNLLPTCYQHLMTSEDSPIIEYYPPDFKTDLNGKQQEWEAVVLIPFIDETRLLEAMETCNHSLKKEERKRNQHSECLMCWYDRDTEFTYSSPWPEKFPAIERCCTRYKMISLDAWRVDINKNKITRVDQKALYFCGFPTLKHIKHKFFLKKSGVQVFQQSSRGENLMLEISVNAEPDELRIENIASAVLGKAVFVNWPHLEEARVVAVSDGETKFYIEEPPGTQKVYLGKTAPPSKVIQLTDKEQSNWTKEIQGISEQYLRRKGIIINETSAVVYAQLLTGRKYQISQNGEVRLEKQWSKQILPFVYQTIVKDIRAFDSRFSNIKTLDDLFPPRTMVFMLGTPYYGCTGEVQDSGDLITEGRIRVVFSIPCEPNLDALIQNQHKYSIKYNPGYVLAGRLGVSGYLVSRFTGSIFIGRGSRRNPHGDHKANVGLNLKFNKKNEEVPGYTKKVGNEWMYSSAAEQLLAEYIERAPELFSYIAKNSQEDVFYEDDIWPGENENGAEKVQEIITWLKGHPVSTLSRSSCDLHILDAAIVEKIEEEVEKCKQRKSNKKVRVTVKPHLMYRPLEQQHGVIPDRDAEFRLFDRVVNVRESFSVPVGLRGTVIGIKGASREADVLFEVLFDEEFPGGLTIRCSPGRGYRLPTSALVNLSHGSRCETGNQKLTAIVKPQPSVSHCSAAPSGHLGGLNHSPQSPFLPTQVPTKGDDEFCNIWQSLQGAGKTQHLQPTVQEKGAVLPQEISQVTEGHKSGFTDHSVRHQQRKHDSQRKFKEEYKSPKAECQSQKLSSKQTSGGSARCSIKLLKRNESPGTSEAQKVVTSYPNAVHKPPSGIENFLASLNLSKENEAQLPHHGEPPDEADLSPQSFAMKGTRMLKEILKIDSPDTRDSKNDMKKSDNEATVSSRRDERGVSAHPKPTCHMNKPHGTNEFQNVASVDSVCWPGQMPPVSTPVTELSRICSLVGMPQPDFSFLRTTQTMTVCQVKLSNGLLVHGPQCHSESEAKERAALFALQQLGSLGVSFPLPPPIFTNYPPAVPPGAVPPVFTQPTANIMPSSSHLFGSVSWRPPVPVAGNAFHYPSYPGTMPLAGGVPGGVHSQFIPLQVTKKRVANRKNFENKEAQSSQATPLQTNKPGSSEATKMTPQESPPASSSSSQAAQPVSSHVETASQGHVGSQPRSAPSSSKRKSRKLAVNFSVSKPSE

Binder | Ka [M⁻¹]
UAUGGGGGAGCUGGGGAAGGUGGGAUUU (structured_RNA) [rGL[G4]] | 2.95e+10
TATGGGGGAGCTGGGGAAGGTGGGATTT (structured_DNA) [GL[G4]] | 1.26e+10
